# Data from the nanobody polyreactivity screen of Harvey et al. (2022).
# Assay: yeast display, Sf9 membrane polyspecificity reagent, FACS + sequencing; frameworks hold sequencing errors
# How it was run: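 Sorting gates, low and high (top ~1%), were placed on anti-HA fluorescence to track expression and on streptavidin fluorescence to track reagent binding. A clone's polyreactivity label is taken from the gate it came out of. The reagent was 10% biotinylated, detergent-solubilized Sf9 membrane, applied for 1 hour at 4 °C to galactose-induced yeast display cells.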
row,Sequence,polyreactivity (PSR sort gate)
1,QVQLVETGGGLVQAGGSLRLSCAASGSTFYKYGMGWYRPAPGKERELVAAISGSGDSTYYADSVKGRFTISRDNAKNTVYLQMNSLKPEDTAVSYCNAGPWWFLHEYDYWGQGTQVTVSS,low polyreactivity
2,QLQLVESGGGLVQAGGSLRLSCAASGSTFSPYAMGWYRQAPGKERELVAAISASGGGTYYADSVKWRLTISRDNAKNTVYLQMNSLKPEDTAVYYCARDYGWDISKGRYGYWGQGTQVTVSS,low polyreactivity
3,QVQLVESGGGLVQAGGSLRLSCAASGFIFATYDMGWYRQAPGKERELVAAIDSDGSTNYADSVKGRYTISRDNAKNTVYLQMNSLKPEDTEVYYCAADRFQWGFWWLEYWGQGTQVTVSS,high polyreactivity
4,QVQLVESGGGLVQAGGSLRLSCAASGRIFTGYAMGWYRQAPGKERELVAAISRGGSTNYADSVKGRFTISRDNAKNTVFLQMNSLKPEDTAVYYCAAGVHWDRGDYWGQGTQVTVSS,low polyreactivity
5,QVQLVESGGCIVQAGGSLRLSCAATGRTFYIYAMGWYRQPPGKESELVATITRGGSTNYADSVKGRFTSSRDNAKNTVYLQMNSLKPVDTAVYYCAAESYFTNWRNRYDYWGQGSQVTVSS,high polyreactivity
6,QVQLVESGGGLVQAGGSLRLSCAASGSTFSPYAMGWYRQAPGKERELVANITISGGSTYYADSVKGRFTISRDNAKNTVYLQMNSLKPEDTAVYFCNADSLIRWLFTVVIFDYWGQGTQVTVSS,low polyreactivity
7,QVQLVESGGGLVQAGGSLRLSCAASGSIFQRNAMGWYRQAPGKERELVAAISRSGGRTYYADSVKGRFTISRDNAKNTVYLQMNSLKPEDTAVYYCAADSPYIQNRFEYWGQGTQVTVSS,high polyreactivity
8,QVQLVESGGGLVQAGGSLRLSCAASGRIFVTNAMGWYRQAPGKERELVAAISTGGSTNYADSVKGRFTISRDNAKNTVYVQRNSLKPEDTAVYYCNRGSRYSHKYDYWGQGTQVTVSP,high polyreactivity
9,QVQLVESGGGLVQAGGSLRLSCAASGNIFKHYAMGWYRQAPGKERELVAAITWSGGSTHYADSVKGLFTISRDNAKNTVYLQMNSLKPEDTAVYYCAARGWWPGTKWTRYDYWGQGTQVTVSS,high polyreactivity
10,QVQLVESGGGLVQAGGSLRLSCAASGSIFLLYAMGWYRQAPGKERELVAAISTRDGSTYYADSVKGRFTLSRDNAKNTVYLQMNSLKPEDTAVYYCATLYSYNYWGQGTQVTVSS,high polyreactivity
11,QVQLVESGGGLVQAGGSLRLSCAASGITFFWNAMGWYRTAPGKERELVAAISSGAGTTYADSVKGRFTISRDNAKNTVYLQMNSLKPEDTAVYYCAARRYRYAYGPYNYWGQGTQVTVSS,low polyreactivity
12,QVQLVESGGGLVQAGGSLRLSCAASGSTIYFNAMGWYRQAPGKERELVAAIDWSGGSTYYADSVKGRFTISRDNAKNTFYLHMNSLKPEDTAVYYCAAAYHYYGNTVGYADYDYWGQGNQVTVSS,low polyreactivity
13,QVQLVESGGGLVQAGGSLRLSCAASGSISDTYGLGWYRQAPGKERELVASITWSSGSTDYADSVKGRFTISRDNAKNTVYLQMNSLKPEDTAVYYCATYEPFYSFFFRGIYDYWGQGTQVTVSS,low polyreactivity
14,QVQLVESGGGLVQAGGSLRLSCAASARIFRYYAMGWYRQAPGKERELVAGISWRGSSTYYADSVKGRFTISRDNAKNTVYLQMNSLKPEDTAVYYCNRDQSNIPVTGGRFYYWRQGTQVTVSS,high polyreactivity
15,QVQIVESGGGLVQAGGSLRLSCAASGSTLSYYGMGWYRQAPGKERELVAAISTGGRTYYADSVKGRFSISRDNATNTVFLQMTSLKPEDTAVYYCNALYVSYVSRYDYWGQGTQVTVSS,high polyreactivity
16,QVQLVESGGGLVQPGGSLRLRCAASGFIFWIYAMGWYRQAPGKERELVAAISLSSGSTYYADSVKGRFTISRDNAKNTVYLEMNSLKTEDTAVYYCAARGYSHVASRLYYYWGQGTQVTVSS,high polyreactivity
17,QVQLVESGGGLVQAGGSLRLTCAASGITFYSYAMGWYRQAPGKERELVAAITRSGGSTYYADSVKGRFTISRDNAKNTVYLQMNSLKPEDTAVYYCAADEGRVFSGGYDYWGQGTQVTVSS,high polyreactivity
18,QVQLVESGGGLVQAGGSLRLSCAASGINISYYAMGWYRQAPGKEREFVAAISWSVGSTYYADSVKGRFTISRDNAKYTVYLQMNSLKPEDTAVYYCAAEDGYWPTYYYWGQGSQVTVSS,high polyreactivity
19,QVQLVESGGGLVQAGGSLRLSCAASGFTFPSYAMGWYRQAPGNERELVAVLSRRGGSTYYADSVKGRFTISRDNAKNTVYLQMNSLKPEDTAVYYCAADFRYYLTTRFNYWGQGTQVTVSS,high polyreactivity
20,QVQLVESGGGLVQAGGSLRLSCAASGLIFATTVLGWYRQAPGKERELVASITTSGSRTYYADSVKGRFTISRDNAKNTVYLQMNSLKPEDTAVYYCAAYPTYLTPSSPGYDYWGQGTQVTVSS,high polyreactivity
21,QVQLVESGGGLVHAGGSLRLSCAASGFTFKENAMGWSRPAPGKERELVAAISSTGGSTYYADSVKGRFTISRDNATNNVYLQMHSLNPDDTAVYYCAASTYWYDGDYWGQGTQVTVSS,high polyreactivity
22,QVQLVESVGGLVQAGGSLRLICAASGRTFSRNAMGWYRQAPGKERELVAGISWRGTSTYYADSVKGRFTISRDNAKNTVFLQMNSLKPEDTAVYYCNRVFEYWSEYDYWGQGTQVTVSS,high polyreactivity

row,Sequence,polyreactivity (PSR sort gate)
1,QVQLVESGGGLVQAGGSLRLSCAASGYTFIVNAMGWYRQAPGKERELVAGISYRGGRTFYADSVKGRFTISRDNAKNTVYLQMTSLKPEDTAVYYCAARKTGIPFYNYDYWGQGTQVTVSS,low polyreactivity
2,QVQLVESGGGLVQAGGSHRLSCAASGSTRYYMGWYRQAPGKEREFVARITWSGTRTYYADSVKGRFTISRDNAKNTVYLQMNSLKPEDTAVYYCNAGVVWGQGTQVTVSS,high polyreactivity
3,QVQLVESGVGFVQAGGSLRLSCAASGSTFGYYDMGWYRQAPGKERELVASIRSSGSTYYADSVKGRFTISRDNPKHTVYFQMNSLKPEDTAVYYCNTASLYHRWQGSWPKYDYWGQGTQVTVSS,high polyreactivity
4,QVQLVESGGGLVQAGGSLRLSCAASGSTFKYYTMGWYIQAPGKERELVAAITWRGGSTYYADSVKGRFTISRDNAKNTVYLQMNSLKPEDTAVYYCNVLQRYGASRYDYWGQGTQVTVSS,high polyreactivity
5,QVQLVESGGGLVQAGGSLRLSCAASGSTVRRYAMGWYRQAPGKERELVAAISWSGGSTYYADSVKGRFTISRDNAKNTGYLQMNSLKPEDTAVYYCAARGVTSYWQDYDYWGQGTQLTVSS,low polyreactivity
6,QVQLVESGGGLVQAGGSLRLSCAASGSIFEPYTMGWYRQAPGKERELVAAITGSGGSTFYADSVKGRFTISRDNAKNTVYLQMNSLKPEDTAVDYCNAYAYPYTDVDYWGQGTQVTVSS,low polyreactivity
7,QVQLVESGGGLVQAGGSLRLSCAASGITLVSYARGWYRQAPGKERELVAAISWSGGRTFYADSVKGRFTISRDNAKNTVYLQMNRLKPEDTAVYYCNTAQYPYFYSHVSYPHDYWGQGTQVTVSS,high polyreactivity
8,QVQLVESGGGLVQAGGSLRLSCAASGSTFTNYAMGWYRQAPGKERELVAAISSSGGRTYYADSVKGRFTISRDNAKNTVYLQMNSLKPEDTAVYYCARVVRPSVGDYWGQGTQVTVSS,high polyreactivity
9,QVQLVESGGGLVQAGGSLRLSCAASGRTFASNDMGWYRQAPGKERELVADINNGARTYYADSVKGRFTISRDNAKNTVYLQMNSLKPEDTAVYYCNARPWYWWEGRYDYWGQGTQVTVSS,high polyreactivity
10,QVQLVESGGGLVQAGGSLRLSCAASGRIFQQYALGWYRQAPGKEREWVAVITYRAGRTHYADSVKGRFTISRDNAKNTVYLQMNSLKPEDTAVYYCAAGRYYAVWQSISGFDSWGQGTQVTVSS,low polyreactivity
11,QVQLVESGGGLVQAGGSLRLSCAASGRTSRNNVMGSYRQAPGKERELVAAITKRTDRTYYADSVKGRFTISRDNAKNTVYLQMNSLKPEDTAVYYCAADLSLSTGGRAFPTYGYWGQGTQVTVSS,high polyreactivity
12,QVQLVESGGGLVQAGGSLRLSCDASGRTSVIYAMGWYRQAPGKERELVASIRRGGSTSYADSVKGRFTISRDNAKNTVYLQMNSLKPEDTAVYYCASTFKSGMDYWGQGTQVTVSS,high polyreactivity
13,QVQLVESGGGLVQAGGSLRLSCAASGGTFWYNAMGWYRQAPGKERELVANIRRSGDSTYYADSVKARFTISRDNAKNTVYLQMNSLKPEDTAVYYCAVSYTTYYHRYYYWGQGTQVTVSS,high polyreactivity
14,QVQIVESGGGLVQAGGRLRLSCAASGFTLYRYAMGWYRQAPGKEREFVAAITRTGGTTYYADSVKGRFTISRDNAKNTVYLQMNSLKPEDTAVYYCAAGANAWYSYRYDYWGQGTQVTVSS,high polyreactivity
15,QVQLVESGGGLVQAGGSLRLSCAASGRTFNYNAMGWYRQAPGTERELVAAINYNGGSTYYADSVKGRFTISRDNAKNTVYLQMNSLKPEDTAVYYCAADQSTVLDVGSWGQGTQVTVSS,low polyreactivity
16,QVQLVESGGGLVQAGGSLRLSCAASGSTFTGYAMGWYRPAPGKEREFVAAISRSGGSTYYADSVKGRFTISRDNAKNTVYLQMNSLKPEDTAVYYCNARGFTRYTVGRNYWGQGTQVTVSS,high polyreactivity
17,HVQLVESGGGLVQAGGSLRLSCAASGSIFPRYSMGRYRQAPGKEMELVAAITSGGSTYYADSVKGRFTISRDNAKNTVYLQMNSLKPEDTAVYYCAATIYRPKGGTYGWYGYDYWGQGTQVTVSS,high polyreactivity
18,QVQLVESGGGIVQAGGRLRLSWAASGNTFDYYAMGWYRQAPWKERELVAAITRGGSTNYADSVKGRFTISRDNAKNTVYLQRNSRKPEDTAVYYCAAEQRAPRGADDDYCGQGTQVTVSS,low polyreactivity
19,QVQLVESGGGLGQAGGSLRLTCAASGSTFDYYAMGWYRPAPRKERELVAAISSSGSSTYYADSVKGRFTISRDIAKNTVYLQMNSLNPEDTAVYFCAIGTNYRDDYWGQGTQVTVSS,low polyreactivity
20,QVQLVESGAGLVQAGGSLLLSCAASAFIFTPYTKGWYRQAPGKETELVAAITDGSSTYYADSVKRRFTISRDNAQNTVYVQMNSLKPEDTAVYYCNADTLTTTRRFNPYDYRGQGTQVTVSS,low polyreactivity
21,QVQLVESWGGLVQAGRSHRLSCAASGIIFDGNALGWYRQAPRKEREMVAAISSSGARTYYADSVKGRFTISRDNAKNSVYLLMNSLKPEDTAVYYCNAAYFNWYTHVWNDYWGQGTQVTVSS,high polyreactivity
